Patent publication US20240067751A1 (KEYMED BIOSCIENCES, published 2024)

How the values were obtained:
MASP-2 in human serum [1] = target: T1, MASP-2 in human serum (human, UniProt O00187 16-686); assay: cell-based or functional assay
MASP-2 in human serum [2] = target: T1, MASP-2 in human serum; assay: cell-based or functional assay; remark: listed apart in the source
[3] = target: T2, rat MASP-2 D4-6 recombinant protein (rat, UniProt Q9JJS8 298-685); assay: ELISA, antigen coated, chimeric IgG titrated, anti-human Fc-HRP
T2 construct: Made 'similarly' to the human protein (N-terminal his6 tag)

[4] = target: T3, mouse MASP-2 D4-6 recombinant protein (mouse, UniProt Q91WP0 298-685); assay: as above
T3 construct: Made 'similarly' to the human protein (N-terminal his6 tag)

[5] = target: T4, Cynomolgus monkey MASP-2 D4-6 recombinant protein (Cynomolgus monkey, UniProt O00187 298-686 (human entry), limits assumed); assay: as above
T4 construct: Made 'similarly' to the human protein (N-terminal his6 tag)

[6] = target: T5, human MASP-2 D4-6 recombinant protein (human, UniProt O00187 298-686); assay: as above
T5 construct: his6 tag fused at the N-terminus, made in HEK293E; also called enzymatic activity domains CCP1-CCP2-SP of human MASP-2

[7] = target: T3, mouse MASP-2 D4-6 recombinant protein; assay: SPR Biacore T200, antibody on Protein A chip, antigen as analyte, 1:1 fit
Experimental: (§1) Surface plasmon resonance technology (SPR/Biacore T200) was used to capture 0.1 μg/ml of the antibody on the surface of the Protein A chip, with a capture time of 40 seconds and a flow rate of 10 μl/min. The chip was washed with buffer until the baseline leveled off, then gradient-diluted antigen was flowed through the chip at the flow rate of 30 μl/min, with a binding time of 120 sec and a dissociation time of 600 sec. The equilibrium dissociation constant (KD) was obtained by fitting in Langmuir 1:1 kinetics mode.

[8] = target: T4, Cynomolgus monkey MASP-2 D4-6 …; assay: as above
Experimental: as §1

[9] = target: T5, human MASP-2 D4-6 recombinant protein; assay: as above
Experimental: as §1

[10] = target: T2, rat MASP-2 D4-6 recombinant protein; assay: SPR Biacore T200, Flag-tagged Fab captured via anti-Flag antibody on Protein A chip, antigen as analyte, 1:1 fit
Experimental: (§2) The surface plasmon resonance (SPR/Biacore T200) technique was used to capture the anti-Flag antibody with Protein A chip. 10 μg/ml purified Fab antibody containing Flag tag was captured on the chip surface, with a capture time of 40 sec and a flow rate of […]. The chip was washed with buffer until the baseline leveled off, then gradient-diluted MASP-2 antigens were injected as the analytes successively to determine the affinity between Fab and different species antigens. The data were fitted by Biacore T200 Evaluation software 3.1 software in Langmuir 1:1 kinetics mode.

[11] = target: T3, mouse MASP-2 D4-6 recombinant protein; assay: as above
Experimental: as §2

[12] = target: T4, Cynomolgus monkey MASP-2 D4-6 …; assay: as above
Experimental: as §2

[13] = target: T5, human MASP-2 D4-6 recombinant protein; assay: as above
Experimental: as §2

[14] = target: T2, rat MASP-2 D4-6 recombinant protein; assay: SPR Biacore T200, antibody on Protein A chip, antigen as analyte, 1:1 fit
Experimental: as §1

T3 sequence (Q91WP0 other isoform, or with tags, fused parts or gaps limits assumed): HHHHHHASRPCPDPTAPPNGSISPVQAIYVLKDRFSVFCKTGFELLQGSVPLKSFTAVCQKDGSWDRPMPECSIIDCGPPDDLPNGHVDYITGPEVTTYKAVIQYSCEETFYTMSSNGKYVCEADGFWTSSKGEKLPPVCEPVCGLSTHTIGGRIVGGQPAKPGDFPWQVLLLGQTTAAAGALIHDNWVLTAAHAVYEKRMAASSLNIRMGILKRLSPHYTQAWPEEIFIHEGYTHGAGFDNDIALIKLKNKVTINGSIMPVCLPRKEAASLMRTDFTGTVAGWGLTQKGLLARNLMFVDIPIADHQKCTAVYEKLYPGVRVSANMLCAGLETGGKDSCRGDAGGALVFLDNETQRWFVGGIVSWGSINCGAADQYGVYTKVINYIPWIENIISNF
T5 sequence (O00187 other isoform, or with tags, fused parts or gaps limits assumed): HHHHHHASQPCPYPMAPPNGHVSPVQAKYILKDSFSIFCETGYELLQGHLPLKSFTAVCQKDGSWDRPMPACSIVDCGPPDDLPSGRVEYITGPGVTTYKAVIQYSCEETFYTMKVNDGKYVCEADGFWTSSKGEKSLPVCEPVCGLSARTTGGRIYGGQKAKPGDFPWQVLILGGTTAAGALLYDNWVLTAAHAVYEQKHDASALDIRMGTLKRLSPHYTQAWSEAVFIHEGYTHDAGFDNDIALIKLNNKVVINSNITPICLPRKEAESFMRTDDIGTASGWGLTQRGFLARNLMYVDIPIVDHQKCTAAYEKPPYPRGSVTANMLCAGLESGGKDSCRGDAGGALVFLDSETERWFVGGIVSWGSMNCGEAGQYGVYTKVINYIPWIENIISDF
T2 sequence (Q9JJS8 other isoform, or with tags, fused parts or gaps limits assumed): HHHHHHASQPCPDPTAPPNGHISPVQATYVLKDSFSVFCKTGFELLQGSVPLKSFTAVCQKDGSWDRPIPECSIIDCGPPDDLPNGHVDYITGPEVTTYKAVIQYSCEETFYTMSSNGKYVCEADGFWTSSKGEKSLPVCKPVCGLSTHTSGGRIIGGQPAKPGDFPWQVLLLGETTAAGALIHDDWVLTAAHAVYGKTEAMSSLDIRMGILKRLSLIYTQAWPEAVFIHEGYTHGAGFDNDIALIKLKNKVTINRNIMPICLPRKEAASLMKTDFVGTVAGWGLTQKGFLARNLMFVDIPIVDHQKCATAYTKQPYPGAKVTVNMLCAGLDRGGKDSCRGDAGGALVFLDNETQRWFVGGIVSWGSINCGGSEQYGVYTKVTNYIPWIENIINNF
T4 sequence (O00187 other isoform, or with tags, fused parts or gaps limits assumed): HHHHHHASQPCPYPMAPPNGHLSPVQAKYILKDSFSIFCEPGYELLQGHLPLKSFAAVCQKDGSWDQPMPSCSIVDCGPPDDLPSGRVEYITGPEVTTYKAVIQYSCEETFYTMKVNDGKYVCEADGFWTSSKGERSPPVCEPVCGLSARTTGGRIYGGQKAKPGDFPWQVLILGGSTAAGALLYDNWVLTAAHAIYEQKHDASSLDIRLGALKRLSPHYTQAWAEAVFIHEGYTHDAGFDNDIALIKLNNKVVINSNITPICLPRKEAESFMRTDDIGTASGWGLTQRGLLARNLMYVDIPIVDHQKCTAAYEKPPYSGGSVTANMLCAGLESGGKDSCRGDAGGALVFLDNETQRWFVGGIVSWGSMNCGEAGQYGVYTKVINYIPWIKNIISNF
T1 sequence (O00187 16-686 limits assumed): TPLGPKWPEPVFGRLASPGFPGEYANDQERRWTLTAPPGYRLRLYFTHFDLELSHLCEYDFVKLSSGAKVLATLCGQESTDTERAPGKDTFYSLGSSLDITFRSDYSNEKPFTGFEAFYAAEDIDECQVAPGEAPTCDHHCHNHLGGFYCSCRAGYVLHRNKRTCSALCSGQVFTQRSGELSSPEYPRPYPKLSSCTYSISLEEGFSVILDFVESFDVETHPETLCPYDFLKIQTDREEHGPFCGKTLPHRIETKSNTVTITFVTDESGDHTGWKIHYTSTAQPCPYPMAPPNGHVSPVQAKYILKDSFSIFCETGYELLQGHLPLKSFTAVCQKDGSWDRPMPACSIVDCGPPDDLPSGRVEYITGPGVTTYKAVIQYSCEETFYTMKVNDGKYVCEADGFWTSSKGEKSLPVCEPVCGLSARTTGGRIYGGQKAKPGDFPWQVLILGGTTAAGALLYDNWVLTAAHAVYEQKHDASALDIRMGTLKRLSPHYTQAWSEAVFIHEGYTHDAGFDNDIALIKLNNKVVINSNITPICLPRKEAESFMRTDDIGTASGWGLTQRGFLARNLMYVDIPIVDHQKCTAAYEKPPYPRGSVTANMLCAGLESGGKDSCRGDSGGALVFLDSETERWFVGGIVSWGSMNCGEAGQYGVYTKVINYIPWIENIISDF

Row | Binder | IC50, inhibition of C3b deposition (MASP-2 in human serum [1]) | IC50, inhibition of C4b deposition (MASP-2 in human serum [2]) | EC50 [3] | EC50 [4] | EC50 [5] | EC50 [6] | Kd [7] | Kd [8] | Kd [9] | further results
1 | h16B11 H2K2 (antibody, V domains shown) VH: QLQLQESGPGLVKPSETLSLTCTVSGYSITSDYAWNWIRQPPGKGLEWIGYISYSGRTSYNPSLKSRVTISRDTSKNQFSLKLSSVTAADTAVYYCARHYGDYWGQGTLVTVSS VL: DIQMTQSPSSLSASVGDRVTITCRASQNVGTNVAWYQQKPGKAPKLLIYSASYRESGVPSRFSGSGSGTDFTLTISSLQPEDFATYFCQQFNTNPLTFGGGTKVEIK | 0.028 nM | 0.032 nM |  |  |  |  |  |  |  | 
2 | h16B11 H3K1 (antibody, V domains shown) VH: QLQLQESGPGLVKPSETLSLTCTVSGYSITSDYAWNWIRQPPGKGLEWIGYISYSGRTSYNPSLKSRVTISVDTSKNQFSLKLSSVTAADTAVYYCARHYGDYWGQGTLVTVSS VL: DIQMTQSPSSLSASVGDRVTITCRASQNVGTNVAWYQQKPGKAPKALIYSASYRESGVPSRFSGSGSGTDFTLTISSLQPEDFATYFCQQFNTNPLTFGGGTKVEIK | 0.06 nM | 0.098 nM |  |  |  |  |  |  |  | 
3 | h16B11 H3K3 (antibody, V domains shown) VH: QLQLQESGPGLVKPSETLSLTCTVSGYSITSDYAWNWIRQPPGKGLEWIGYISYSGRTSYNPSLKSRVTISVDTSKNQFSLKLSSVTAADTAVYYCARHYGDYWGQGTLVTVSS VL: DIQMTQSPSSLSASVGDRVTITCRASQNVGTNVAWYQQKPGKAPKALIYSASYRQSGVPSRFSGSGSGTDFTLTISSLQPEDFATYFCQQFNTNPLTFGGGTKVEIK | 0.112 nM | 0.44 nM |  |  |  |  |  |  |  | 
4 | h16B11 H2K3 (antibody, V domains shown) VH: QLQLQESGPGLVKPSETLSLTCTVSGYSITSDYAWNWIRQPPGKGLEWIGYISYSGRTSYNPSLKSRVTISRDTSKNQFSLKLSSVTAADTAVYYCARHYGDYWGQGTLVTVSS VL: DIQMTQSPSSLSASVGDRVTITCRASQNVGTNVAWYQQKPGKAPKALIYSASYRQSGVPSRFSGSGSGTDFTLTISSLQPEDFATYFCQQFNTNPLTFGGGTKVEIK | 0.018 nM | 0.012 nM |  |  |  |  |  |  |  | 
5 | h16B11 H3K2 (antibody, V domains shown) VH: QLQLQESGPGLVKPSETLSLTCTVSGYSITSDYAWNWIRQPPGKGLEWIGYISYSGRTSYNPSLKSRVTISVDTSKNQFSLKLSSVTAADTAVYYCARHYGDYWGQGTLVTVSS VL: DIQMTQSPSSLSASVGDRVTITCRASQNVGTNVAWYQQKPGKAPKLLIYSASYRESGVPSRFSGSGSGTDFTLTISSLQPEDFATYFCQQFNTNPLTFGGGTKVEIK | 0.399 nM | 1.69 nM |  |  |  |  |  |  |  | 
6 | chimeric antibody 10L3 (antibody, V domains shown) VH: DVQLQESGPGLVKPSQSLSLTCTVTGYSITSDYAWNWIRQFPGNKLEWMGYISYSGRTSYNPSLKSRISITRDTSKNQFFLQLNSVTTEDTATYYCAKLGGGHGMDYWGQGTSVTVSS VL: IVMTQSQKFMSTSVGDRVSVTCKASQNVDTNVAWYQQKPGQSPKALIYSASYRYSGVPDRFTGSGSGTDFTLTISNVQSEDLAEYFCLQYNSYLTFGSGTKLELK |  |  | 30.2 nM | 30.9 nM | 0.016 nM | 0.022 nM | 214 nM | 1.29 nM | 0.07 nM | 
7 | chimeric antibody 16A17 (antibody, V domains shown) VH: DVQLQESGPGLVKPSQSLSLTCTVTGYSITSDYAWKWIRQFPGNKLEWMGYISYSGSTSYHPSLKGRISITRDTSKNQFFLQLNSVTADDTATYYCAILGYYAMDYWGQGTSVTVSS VL: DIVMTQSQKFMSTSVGDRVSITCKASQNVRVDVAWYQQKSGQSPRALIYLASNRHTGVPDRFTGSGSGTDFTLTITNVQSEDLADYFCPQHWSYPLTFGGGTKLEIK |  |  | 4.3 nM | 1.97 nM | 0.014 nM | 0.014 nM | 487 nM | 0.063 nM | 0.008 nM | 
8 | Fab antibody 14F11 (Fab, V domains shown, Purified murine Fab with Flag tag from the phage display library; also called mAb 14F11) VH: QVQLQQSGPQLLRPGASVKISCKASGFSFTNHWIHWVKQRPGQGLEWIGMIDPSDSETGLNQKFRDKATLTVDKSSSTAYMHLNSPTSEDSAVYYCARLGIHDGYYIYAMDFWGQGTSVTVSS VL: NIVMTQSPKSMSMSVGERVTLSCKASENVGTYVSWYQQKPEQSPKLLIYGASNRYTGVPDRFTGSGSATDFTLTISSVQAEDLADYHCGQSYSYPLTFGAGTKLELK |  |  |  |  |  |  |  |  |  | Kd [10]: 0.546 nM; koff [10]: 0.00182 s⁻¹; kon [10]: 3.34e+06 M⁻¹ s⁻¹; Kd [11]: 18 nM; koff [11]: 1.16 s⁻¹; kon [11]: 6.44e+07 M⁻¹ s⁻¹; Kd [12]: 4.66 nM; Kd [13]: 0.172 nM; koff [13]: 0.000163 s⁻¹; kon [13]: 948000 M⁻¹ s⁻¹
9 | chimeric antibody 3B9 (antibody, V domains shown) VH: DVQLQESGPGLVRPSQSLSLTCTVTGYSITSDYAWNWIRQFPGNKLEWMGYISYSGRTSYNPSLKSRLSITRDTSKNQFFLQLNSVSSADTATYYCAIISTAVDFDYWGQGTTLTVSS VL: QTVLTQSPAIMSASLGERVTMTCTASSSVSSSYLLWYQQKPGSSPKLWIYSTSKLASGVPVRFSGSGSGTSYSLTISSMEADDAATYYCLQYNRSPLTFGAGTKLELK |  |  | 1.62 nM | 4.39 nM | 0.038 nM | 0.025 nM | 476 nM | 0.051 nM | 0.067 nM | Kd [14]: 1040 nM
10 | Fab antibody 16B11 (Fab, V domains shown, Purified murine Fab with Flag tag from the phage display library; also called mAb 16B11) VH: QMQLQESGPGLVKPSQSLSLTCTVTGYSITSDYAWNWIRQFPGNKLEWMGYISYSGRTSYNPSLKSRISITRDTSKNQFFLQLNSVTTEDTATYYCARHYGDYWGQGTTLTVSS VL: DIVMTQSQKLMSTSVGDRVSVTCKASQNVGTNVAWYQQKPGQSPKALIYSASYRNSGVPDRFTGSGSGTDFTLTISNVQSEDLAEYFCQQFNTNPLTFGSGTKLEIK |  |  |  |  |  |  |  |  |  | Kd [10]: 5.06 nM; koff [10]: 0.00931 s⁻¹; kon [10]: 1.84e+06 M⁻¹ s⁻¹; Kd [11]: 1.76 nM; koff [11]: 0.00811 s⁻¹; kon [11]: 4.61e+06 M⁻¹ s⁻¹; Kd [12]: 0.109 nM; koff [12]: 0.000181 s⁻¹; kon [12]: 1.66e+06 M⁻¹ s⁻¹; Kd [13]: 0.0407 nM; koff [13]: 8.75e-05 s⁻¹; kon [13]: 2.15e+06 M⁻¹ s⁻¹
11 | chimeric antibody 4F18 (antibody, V domains shown, to be rechecked) VH: EVQLQESGPGLVKPSQSLSLACTVTGYSITSDYAWHWIRQFPGNKLEWMGFISYSGRTNYNPPLTSRISITRDTSKNQFFLQLNSVTTEDTATYYCARSYDYWFGYWGQGTLVTVSA VL: NVLMTQTPLSLPVSLGDQASISCRSSQSLVHSNGNTYLEWYMQKPGQSPKLLIYTVSRRFSGVPDRFSGSGSGTDFTLKISRVEAEDLGVYYCFQGSHVPVTFGAGTKLELK |  |  |  | 0.287 nM | 0.003 nM | 0.004 nM | 218 nM | 24.8 nM | 0.108 nM | 
12 | chimeric antibody 1B2 (antibody, V domains shown) VH: DVQLQESGPGLVKPSQSLSLTCTVTGYSITSDYAWNWIRQFSGDKLEWMGYISYSGSTSYNPSLKSRISITRDTSKNQFFLHLSSVTTEDTATYFCARYWGDYWGHGTTLTVSS VL: DSVMTQSQKFMSTSVGDRVSVTCKASHNVGTNVAWFQQKPGQSPKGLIYSASYRSSGVPDRFTGSGSGTDFTLTISNVQSEDLAEYFCLQYNSNPLTFGGGTKLEVK |  |  | 1.44 nM | 0.947 nM | 0.014 nM | 0.015 nM | 632 nM | 0.078 nM | 0.002 nM | 
13 | chimeric antibody 28O14 (antibody, V domains shown) VH: QVQLQQSGTELARPGASVRMSCKASGYTFRSHTMHWVKQRPGQGLEWIGYINPSTGYINYNQKFKDKATLTADKSSSTAYMQLSSLTSEDSAVYYCARSNYSYYYGMDYWGQGTSVTVSS VL: DIVMTQSHKFMSTSVGDRVTITCKASQDVNTAVAWYQQKPGQSPKLLIYSASYRYTGVPDRFTGSGSGTDFTFTISSLQAEDLAVYYCQQHYNIPLTFGAGTKLELK |  |  |  |  | 0.043 nM | 0.033 nM | 767 nM | 0.01 nM | 0.09 nM | Kd [14]: 162 nM
